{"source": "paper PMC8291337", "origin": "cited, not measured here", "molecular_target": "Spike protein (SARS-CoV-2) (UniProt P0DTC2)", "data": [{"substance": "CD147 (from UniProt P35613)", "values": [{"measurement": "Kd", "result": 185, "unit": "nM"}]}]}
